B1: SEQ ID NO 37 (peptide)
peptide: H[Aib]EGS[αMeF]TDDV[αMeS]S[αMeF]LEGEAAK([γGlu-Palmitoyl])E[αMeF]IA[αMeF]VV[αMeK]GG-NH2
modifications: N-terminus assumed
SMILES: CCCCCCCCCCCCCCCC(=O)N[C@@H](CCC(=O)NCCCC[C@H](NC(=O)[C@H](C)NC(=O)[C@H](C)NC(=O)[C@H](CCC(=O)O)NC(=O)CNC(=O)[C@H](CCC(=O)O)NC(=O)[C@H](CC(C)C)NC(=O)[C@](C)(Cc1ccccc1)NC(=O)[C@H](CO)NC(=O)[C@](C)(CO)NC(=O)[C@@H](NC(=O)[C@H](CC(=O)O)NC(=O)[C@H](CC(=O)O)NC(=O)[C@@H](NC(=O)[C@](C)(Cc1ccccc1)NC(=O)[C@H](CO)NC(=O)CNC(=O)[C@H](CCC(=O)O)NC(=O)C(C)(C)NC(=O)[C@@H](N)Cc1c[nH]cn1)[C@@H](C)O)C(C)C)C(=O)N[C@@H](CCC(=O)O)C(=O)N[C@@](C)(Cc1ccccc1)C(=O)N[C@H](C(=O)N[C@@H](C)C(=O)N[C@@](C)(Cc1ccccc1)C(=O)N[C@H](C(=O)N[C@H](C(=O)N[C@@](C)(CCCCN)C(=O)NCC(=O)NCC(N)=O)C(C)C)C(C)C)[C@@H](C)CC)C(=O)O
B2: SEQ ID NO 41 (peptide)
peptide: H[Aib]EGS[αMeF]TSDVSS[αMeF]LEGEAAK([γGlu-Palmitoyl])E[αMeF]IA[αMeF]VVKGG-NH2
modifications: N-terminus assumed
SMILES: CCCCCCCCCCCCCCCC(=O)N[C@@H](CCC(=O)NCCCC[C@H](NC(=O)[C@H](C)NC(=O)[C@H](C)NC(=O)[C@H](CCC(=O)O)NC(=O)CNC(=O)[C@H](CCC(=O)O)NC(=O)[C@H](CC(C)C)NC(=O)[C@](C)(Cc1ccccc1)NC(=O)[C@H](CO)NC(=O)[C@H](CO)NC(=O)[C@@H](NC(=O)[C@H](CC(=O)O)NC(=O)[C@H](CO)NC(=O)[C@@H](NC(=O)[C@](C)(Cc1ccccc1)NC(=O)[C@H](CO)NC(=O)CNC(=O)[C@H](CCC(=O)O)NC(=O)C(C)(C)NC(=O)[C@@H](N)Cc1c[nH]cn1)[C@@H](C)O)C(C)C)C(=O)N[C@@H](CCC(=O)O)C(=O)N[C@@](C)(Cc1ccccc1)C(=O)N[C@H](C(=O)N[C@@H](C)C(=O)N[C@@](C)(Cc1ccccc1)C(=O)N[C@H](C(=O)N[C@H](C(=O)N[C@@H](CCCCN)C(=O)NCC(=O)NCC(N)=O)C(C)C)C(C)C)[C@@H](C)CC)C(=O)O
B3: SEQ ID NO 39 (peptide)
peptide: H[Aib]EGS[αMeF]TSDVSS[αMeF]LEGEAAKE[αMeF]IA[αMeF]VVKGGK([γGlu-Palmitoyl])-NH2
modifications: N-terminus assumed
SMILES: CCCCCCCCCCCCCCCC(=O)N[C@@H](CCC(=O)NCCCC[C@H](NC(=O)CNC(=O)CNC(=O)[C@H](CCCCN)NC(=O)[C@@H](NC(=O)[C@@H](NC(=O)[C@](C)(Cc1ccccc1)NC(=O)[C@H](C)NC(=O)[C@@H](NC(=O)[C@](C)(Cc1ccccc1)NC(=O)[C@H](CCC(=O)O)NC(=O)[C@H](CCCCN)NC(=O)[C@H](C)NC(=O)[C@H](C)NC(=O)[C@H](CCC(=O)O)NC(=O)CNC(=O)[C@H](CCC(=O)O)NC(=O)[C@H](CC(C)C)NC(=O)[C@](C)(Cc1ccccc1)NC(=O)[C@H](CO)NC(=O)[C@H](CO)NC(=O)[C@@H](NC(=O)[C@H](CC(=O)O)NC(=O)[C@H](CO)NC(=O)[C@@H](NC(=O)[C@](C)(Cc1ccccc1)NC(=O)[C@H](CO)NC(=O)CNC(=O)[C@H](CCC(=O)O)NC(=O)C(C)(C)NC(=O)[C@@H](N)Cc1c[nH]cn1)[C@@H](C)O)C(C)C)[C@@H](C)CC)C(C)C)C(C)C)C(N)=O)C(=O)O

Starred links: 1 amine or outer side, 2 acyl side, 3 side chain; linkers in the order of their positions; H or OH if unused. Non-standard residues stand in square brackets, D forms with d. Groups on a side chain read outwards from the residue. Primed or numbered codes have the meaning given here. No end group written: not given here. *: point of attachment. γGlu = O=C(O)[C@H](CCC(=O)[*:2])N[*:1]; Stearoyl = CCCCCCCCCCCCCCCCCC(=O)*; Palmitoyl = CCCCCCCCCCCCCCCC(=O)*; αMeF = C[C@](N)(Cc1ccccc1)C(=O)O; αMeK = C[C@](N)(CCCCN)C(=O)O; αMeS = C[C@](N)(CO)C(=O)O; PEG2′ = not defined here; Aib = CC(C)(N)C(=O)O

The first assay addresses T1, glucose-dependent insulinotropic peptide (gastric inhibitory polypeptide) receptor (human, UniProt P48546 22-466).
T1 sequence (looked up): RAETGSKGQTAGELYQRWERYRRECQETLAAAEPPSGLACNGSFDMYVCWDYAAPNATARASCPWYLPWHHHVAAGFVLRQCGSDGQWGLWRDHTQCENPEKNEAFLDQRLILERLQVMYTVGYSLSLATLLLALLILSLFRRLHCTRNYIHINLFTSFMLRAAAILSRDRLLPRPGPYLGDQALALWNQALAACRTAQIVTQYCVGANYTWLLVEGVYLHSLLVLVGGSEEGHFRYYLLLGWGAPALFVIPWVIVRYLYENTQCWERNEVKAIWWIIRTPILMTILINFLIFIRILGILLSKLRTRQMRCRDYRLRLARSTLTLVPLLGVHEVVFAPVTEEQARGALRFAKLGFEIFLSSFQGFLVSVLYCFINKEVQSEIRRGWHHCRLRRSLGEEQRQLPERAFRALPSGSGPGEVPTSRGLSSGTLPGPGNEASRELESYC
The assay can be described thus: cell-based or functional assay.
Turning to H[Aib]EGS[αMeF]TSDVSS[αMeF]LEGEAAK([PEG2′-PEG2′-γGlu-Stearoyl])E[αMeF]IA[αMeF]VVKGG-NH2 [SEQ ID NO 40], the “Primary assay EC50 (cAMP), n1” value came to 85 nM and the “Primary assay EC50 (cAMP), n2” value was 26 nM.
The like results for B1 were, in that order, 92 nM and 28 nM.
The like results for H[Aib]EGS[αMeF]TDDV[αMeS]S[αMeF]LEGEAAK([PEG2′-PEG2′-γGlu-Stearoyl])E[αMeF]IA[αMeF]VV[αMeK]GG-NH2 [SEQ ID NO 36] were, in that order, 84 nM and 25 nM.
The like results for B2 were, in that order, 94 nM and 28 nM.
As for H[Aib]EGS[αMeF]TSDVSS[αMeF]LEGEAAKE[αMeF]IA[αMeF]VVKGGK([PEG2′-PEG2′-γGlu-Stearoyl])-NH2 [SEQ ID NO 38], the “Primary assay EC50 (cAMP), n1” value was determined as 25 nM and the “Primary assay EC50 (cAMP), n2” value turned out to be 25 nM.
For the molecule HXEGTFTSDVSSYLEGQAAKEFIAWLVKGRK (Aib 2; K(ε-(PEG)2-(PEG)2-γE-Stearate) after R30; C-terminal amide) [SEQ ID NO 6], the “Primary assay EC50 (cAMP), n1” value was found to be 22 nM and the “Primary assay EC50 (cAMP), n2” value is 22 nM.
Consider B3, for which the “Primary assay EC50 (cAMP), n1” value is 27 nM and the “Primary assay EC50 (cAMP), n2” value turned out to be 27 nM.

In another assay the target is glucagon receptor (human, UniProt P47871 26-477). The assay can be described thus: cell-based or functional assay.
Sequence of glucagon receptor (P47871 26-477): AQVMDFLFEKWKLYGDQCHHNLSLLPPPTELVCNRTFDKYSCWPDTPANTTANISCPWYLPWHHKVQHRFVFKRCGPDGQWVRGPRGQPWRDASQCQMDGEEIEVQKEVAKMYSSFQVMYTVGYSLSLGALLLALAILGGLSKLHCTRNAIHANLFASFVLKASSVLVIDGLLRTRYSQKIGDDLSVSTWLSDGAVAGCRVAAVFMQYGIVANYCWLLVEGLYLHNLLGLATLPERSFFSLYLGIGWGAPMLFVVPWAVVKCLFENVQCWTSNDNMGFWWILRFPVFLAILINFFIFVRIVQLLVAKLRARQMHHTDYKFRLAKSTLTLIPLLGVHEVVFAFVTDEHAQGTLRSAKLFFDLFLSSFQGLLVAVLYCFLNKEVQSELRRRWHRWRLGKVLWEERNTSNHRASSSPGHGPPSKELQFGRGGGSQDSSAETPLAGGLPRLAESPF
With H[Aib]EGS[αMeF]TSDVSS[αMeF]LEGEAAK([PEG2′-PEG2′-γGlu-Stearoyl])E[αMeF]IA[αMeF]VVKGG-NH2 [SEQ ID NO 40], the “Primary assay EC50 (cAMP), n1” value worked out at 85 nM and the “Primary assay EC50 (cAMP), n2” value stood at 26 nM.
The matching figures for B1: 92 nM and 28 nM.
The like results for H[Aib]EGS[αMeF]TDDV[αMeS]S[αMeF]LEGEAAK([PEG2′-PEG2′-γGlu-Stearoyl])E[αMeF]IA[αMeF]VV[αMeK]GG-NH2 [SEQ ID NO 36] were, in that order, 84 nM and 25 nM.
The like results for B2 were, in that order, 94 nM and 28 nM.
Turning to H[Aib]EGS[αMeF]TSDVSS[αMeF]LEGEAAKE[αMeF]IA[αMeF]VVKGGK([PEG2′-PEG2′-γGlu-Stearoyl])-NH2 [SEQ ID NO 38], the “Primary assay EC50 (cAMP), n1” value was determined as 25 nM and the “Primary assay EC50 (cAMP), n2” value is 25 nM.
Consider HXEGTFTSDVSSYLEGQAAKEFIAWLVKGRK (Aib 2; K(ε-(PEG)2-(PEG)2-γE-Stearate) after R30; C-terminal amide) [SEQ ID NO 6], for which the “Primary assay EC50 (cAMP), n1” value was determined as 22 nM and the “Primary assay EC50 (cAMP), n2” value turned out to be 22 nM.
Regarding B3, the “Primary assay EC50 (cAMP), n1” value was found to be 27 nM and the “Primary assay EC50 (cAMP), n2” value stood at 27 nM.

A further assay deals with GLP-1 receptor (human, UniProt P43220 24-463). The assay can be described thus: cell-based or functional assay.
As for H[Aib]EGS[αMeF]TSDVSS[αMeF]LEGEAAK([PEG2′-PEG2′-γGlu-Stearoyl])E[αMeF]IA[αMeF]VVKGG-NH2 [SEQ ID NO 40], the “Primary assay EC50 (cAMP), Mean pM GLP-1R” value was determined as 1170 pM; the “Primary assay EC50 (cAMP), n1” value worked out at 1.8 nM; the “Primary assay EC50 (cAMP), n2” value is 0.57 nM.
The like results for B1 were, in that order, 4500 pM, 7.3 nM and 1.7 nM.
For the molecule H[Aib]EGS[αMeF]TDDV[αMeS]S[αMeF]LEGEAAK([PEG2′-PEG2′-γGlu-Stearoyl])E[αMeF]IA[αMeF]VV[αMeK]GG-NH2 [SEQ ID NO 36], the “Primary assay EC50 (cAMP), Mean pM GLP-1R” value was determined as 44200 pM; the “Primary assay EC50 (cAMP), n1” value came to 63 nM; the “Primary assay EC50 (cAMP), n2” value amounted to 25 nM.
The matching figures for B2: 147 pM, 0.24 nM and 0.051 nM.
H[Aib]EGS[αMeF]TSDVSS[αMeF]LEGEAAKE[αMeF]IA[αMeF]VVKGGK([PEG2′-PEG2′-γGlu-Stearoyl])-NH2 [SEQ ID NO 38]: the “Primary assay EC50 (cAMP), Mean pM GLP-1R” value came out at 72 pM; the “Primary assay EC50 (cAMP), n1” value came out at 0.062 nM; the “Primary assay EC50 (cAMP), n2” value worked out at 0.082 nM.
The like results for HXEGTFTSDVSSYLEGQAAKEFIAWLVKGRK (Aib 2; K(ε-(PEG)2-(PEG)2-γE-Stearate) after R30; C-terminal amide) [SEQ ID NO 6] were, in that order, 5.1 pM, 0.0048 nM and 0.0053 nM.
The like results for B3 were, in that order, 33 pM, 0.033 nM and 0.033 nM.

For the origin of these results see US20200079833A1 (AstraZeneca / MedImmune, published 2020).
